Assay results: publication PMC11020753, “Contribution of amino acids in the active site of dipeptidyl peptidase 4 to the catalytic action of the enzyme” (PLOS ONE, 2024)
Non-standard residues stand in square brackets, D forms with d. Residues, ends and D or L forms follow the SMILES beside them. Tle = CC(C)(C)[C@H](N)C(=O)O

Columns and labels:
Format in all cases: biochemical
[1] = target: T1, DP4 variant E205A (Homo sapiens, UniProt P27487, E205A); assay: Km and kcat determination by LC/MS-MS assay; details: hydrolysis of peptide hormone, 10 mM Tris-buffer (pH 7.6), T = 30 °C
T1 construct: His(6)-37-766 hDP4 containing fractions were concentrated to 1 ml as described above; His6 (N); made in house; host or cells: Pichia pastoris X-33, vector pPICZα C (secreted)
Method: (§1) Therefore, DP4 was incubated with different substrate concentrations in 10 mM Tris-buffer pH 7.6 at 30°C. Enzyme concentrations and incubation times were chosen to obtain a linear product formation. After selected time points, samples were taken and the reaction stopped by addition of 19 volumes 0,1% HCOOH. Cleavage products were quantified in the respective samples by LC/MS-MS assay.

[2] = target: T2, DP4 variant N710A (Homo sapiens, UniProt P27487, N710A); assay: Km and kcat determination by LC/MS-MS assay; details: hydrolysis of peptide hormone, 10 mM Tris-buffer (pH 7.6), T = 30 °C
T2 construct: His(6)-37-766 hDP4 containing fractions were concentrated to 1 ml; made in house; host or cells: Pichia pastoris X-33 (vector pPICZα C, secreted)
Method: as §1

[3] = target: T3, wild type DP4 (Homo sapiens, UniProt P27487); assay: Km and kcat determination by LC/MS-MS assay; details: hydrolysis of peptide hormone, 10 mM Tris-buffer (pH 7.6), T = 30 °C
T3 construct: His(6)-37-766 hDP4 containing fractions were concentrated to 1 ml; made in house; host or cells: Pichia pastoris X-33 (vector pPICZα C, secreted)
Method: as §1

[4] = target: T4, DP4 variant R125A (Homo sapiens, UniProt P27487, R125A); assay: Km and kcat determination by LC/MS-MS assay; details: hydrolysis of peptide hormone, 10 mM Tris-buffer (pH 7.6), T = 30 °C
T4 construct: His(6)-37-766 hDP4 containing fractions were concentrated to 1 ml; made in house; host or cells: Pichia pastoris X-33 (vector pPICZα C, secreted)
Method: as §1

[5] = target: T5, DP4 variant N710Q (Homo sapiens, UniProt P27487, N710Q); assay: Km and kcat determination by LC/MS-MS assay; details: hydrolysis of peptide hormone, 10 mM Tris-buffer (pH 7.6), T = 30 °C
T5 construct: His(6)-37-766 hDP4 containing fractions were concentrated to 1 ml; made in house; host or cells: Pichia pastoris X-33 (vector pPICZα C, secreted)
Method: as §1

[6] = target: T6, DP4 variant E206A (Homo sapiens, UniProt P27487, E206A); assay: Km and kcat determination by LC/MS-MS assay; details: hydrolysis of peptide hormone, 10 mM Tris-buffer (pH 7.6), T = 30 °C
T6 construct: His(6)-37-766 hDP4 containing fractions were concentrated to 1 ml as described above; His6 (N); made in house; host or cells: Pichia pastoris X-33, vector pPICZα C (secreted)
Method: as §1

[7] = target: T7, DP4 variant N710D (Homo sapiens, UniProt P27487, N710D); assay: Km and kcat determination by LC/MS-MS assay; details: hydrolysis of peptide hormone, 10 mM Tris-buffer (pH 7.6), T = 30 °C
T7 construct: His(6)-37-766 hDP4 containing fractions were concentrated to 1 ml; made in house; host or cells: Pichia pastoris X-33 (vector pPICZα C, secreted)
Method: as §1

[8] = target: T8, DP4 variant R125K (Homo sapiens, UniProt P27487, R125K); assay: Km and kcat determination by LC/MS-MS assay; details: hydrolysis of peptide hormone, 10 mM Tris-buffer (pH 7.6), T = 30 °C
T8 construct: His(6)-37-766 hDP4 containing fractions were concentrated to 1 ml; made in house; host or cells: Pichia pastoris X-33 (vector pPICZα C, secreted)
Method: as §1

[9] = target: T3, wild type DP4; assay: Cleavage of peptide hormones by MALDI-TOF mass spectrometry; parameters: key: +++: hydrolysis is comparable with the data obtained from the wild type enzyme; -: hydrolysis below 0,01% of the wild type enzyme; details: T = 37 °C, 100 mM Tris-HCl, pH 7.6, substrate concentration 25 μM
Method: (§2) Enzyme concentration 5 x 10^−9 M, substrate concentration 25 μM, reaction time 1–3 hours, depending on the respective hydrolysis rate. Reactions were stopped by addition of 1 volume DHAP/DAHC-matrix, dissolved in 50% (v/v) acetonitrile, after certain time points. The matrix-sample mixture was placed in a vacuum, which caused the proteins to crystallize together with the matrix. Using the mass spectrometer "LD-TOF System G2025" from Hewlett Packard, the relative amount of substrate and respective product peaks in the samples could be determined. Relative hydrolysis rates were depicted by plotting relative substrate concentration against time.

[10] = target: T8, DP4 variant R125K; assay: as above; parameters: key: +++: hydrolysis is comparable with the data obtained from the wild type enzyme; -: hydrolysis below 0,01% of the wild type enzyme; details: T = 37 °C, 100 mM Tris-HCl, pH 7.6, substrate concentration 25 μM
Method: as §2

[11] = target: T1, DP4 variant E205A; assay: IC50 determination with substrate Gly-Pro-AMC; details: 100 mM HEPES-buffer (pH 7.6), T = 30 °C, substrate Gly-Pro-AMC in the range of Km
Method: (§3) The reactions were performed in 100 mM HEPES buffer, pH 7.6 at 30°C in a total assay volume of 270 μl by using 96-well plates. […] Fluorescence was detected with a […]luor Plus (TECAN) at an excitation wavelength of 380 nm and an emission wavelength of 465 nm.

[12] = target: T2, DP4 variant N710A; assay: IC50 determination with substrate Gly-Pro-AMC; details: bounds given in mM, 100 mM HEPES-buffer (pH 7.6), T = 30 °C, substrate Gly-Pro-AMC in the range of Km
Method: as §3

[13] = target: T3, wild type DP4; assay: IC50 determination with substrate Gly-Pro-AMC; details: 100 mM HEPES-buffer (pH 7.6), T = 30 °C, substrate Gly-Pro-AMC in the range of Km
Method: as §3

[14] = target: T4, DP4 variant R125A; assay: IC50 determination with substrate Gly-Pro-AMC; details: 100 mM HEPES-buffer (pH 7.6), T = 30 °C, substrate Gly-Pro-AMC in the range of Km
Method: as §3

[15] = target: T5, DP4 variant N710Q; assay: IC50 determination with substrate Gly-Pro-AMC; details: bounds given in mM, 100 mM HEPES-buffer (pH 7.6), T = 30 °C, substrate Gly-Pro-AMC in the range of Km
Method: as §3

[16] = target: T6, DP4 variant E206A; assay: IC50 determination with substrate Gly-Pro-AMC; details: bounds given in mM, 100 mM HEPES-buffer (pH 7.6), T = 30 °C, substrate Gly-Pro-AMC in the range of Km
Method: as §3

[17] = target: T7, DP4 variant N710D; assay: IC50 determination with substrate Gly-Pro-AMC; details: 100 mM HEPES-buffer (pH 7.6), T = 30 °C, substrate Gly-Pro-AMC in the range of Km
Method: as §3

[18] = target: T8, DP4 variant R125K; assay: IC50 determination with substrate Gly-Pro-AMC; details: 100 mM HEPES-buffer (pH 7.6), T = 30 °C, substrate Gly-Pro-AMC in the range of Km
Method: as §3

[19] = target: T1, DP4 variant E205A; assay: Cleavage of peptide hormones by MALDI-TOF mass spectrometry; details: T = 37 °C, 100 mM Tris-HCl, pH 7.6, substrate concentration 25 μM
Method: as §2

[20] = target: T2, DP4 variant N710A; assay: as above; details: T = 37 °C, 100 mM Tris-HCl, pH 7.6, substrate concentration 25 μM
Method: as §2

[21] = target: T5, DP4 variant N710Q; assay: as above; details: T = 37 °C, 100 mM Tris-HCl, pH 7.6, substrate concentration 25 μM
Method: as §2

[22] = target: T6, DP4 variant E206A; assay: as above; details: T = 37 °C, 100 mM Tris-HCl, pH 7.6, substrate concentration 25 μM
Method: as §2

[23] = target: T7, DP4 variant N710D; assay: as above; details: T = 37 °C, 100 mM Tris-HCl, pH 7.6, substrate concentration 25 μM
Method: as §2

T7 sequence (P27487 37-766 N710D): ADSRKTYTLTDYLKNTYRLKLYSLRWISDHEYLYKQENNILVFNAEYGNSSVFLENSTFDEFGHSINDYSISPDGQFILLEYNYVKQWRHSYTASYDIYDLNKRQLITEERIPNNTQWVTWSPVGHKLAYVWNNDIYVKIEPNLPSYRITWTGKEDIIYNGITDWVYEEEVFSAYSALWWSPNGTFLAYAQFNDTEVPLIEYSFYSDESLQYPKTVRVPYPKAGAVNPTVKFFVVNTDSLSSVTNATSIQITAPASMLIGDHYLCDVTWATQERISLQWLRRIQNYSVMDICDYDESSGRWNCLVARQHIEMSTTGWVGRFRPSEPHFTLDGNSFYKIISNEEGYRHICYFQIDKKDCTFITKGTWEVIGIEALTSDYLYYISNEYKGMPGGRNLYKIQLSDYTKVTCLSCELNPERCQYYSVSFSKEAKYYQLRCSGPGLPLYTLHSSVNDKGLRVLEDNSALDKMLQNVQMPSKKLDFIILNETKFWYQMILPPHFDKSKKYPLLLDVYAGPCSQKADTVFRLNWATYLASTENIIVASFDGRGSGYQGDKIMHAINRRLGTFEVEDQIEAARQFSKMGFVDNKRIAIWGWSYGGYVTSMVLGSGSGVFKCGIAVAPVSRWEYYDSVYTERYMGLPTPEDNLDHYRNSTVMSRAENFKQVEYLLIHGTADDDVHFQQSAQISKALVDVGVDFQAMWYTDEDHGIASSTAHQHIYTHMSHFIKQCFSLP
T3 sequence (P27487 37-766): as the sequence (P27487 37-766 N710D) above, with D674N counted along it
T1 sequence (P27487 37-766 E205A): as the sequence (P27487 37-766 N710D) above, with E169A, D674N counted along it
T4 sequence (P27487 37-766 R125A): as the sequence (P27487 37-766 N710D) above, with R89A, D674N counted along it
T8 sequence (P27487 37-766 R125K): as the sequence (P27487 37-766 N710D) above, with R89K, D674N counted along it
T6 sequence (P27487 37-766 E206A): as the sequence (P27487 37-766 N710D) above, with E170A, D674N counted along it
T5 sequence (P27487 37-766 N710Q): as the sequence (P27487 37-766 N710D) above, with D674Q counted along it
T2 sequence (P27487 37-766 N710A): as the sequence (P27487 37-766 N710D) above, with D674A counted along it

## NP Y: physiological DP4 substrate, peptide hormone, proline in P1 position (H2N-Y-P-S…)
[1]
  Km: 180 µM
  kcat: 11 ± 0.7 s⁻¹
[2]
  Km: 83 µM
  kcat: 1.8 ± 0.08 s⁻¹
[3]
  Km: 13 µM
  kcat: 37 ± 2.7 s⁻¹
[4]
  Km: 150 µM
  kcat: 23 ± 0.9 s⁻¹
[5]
  Km: 510 µM
  kcat: 2.0 ± 0.32 s⁻¹
[6]
  Km: 98 µM
[7]
  Km: 190 µM
  kcat: 12 ± 0.9 s⁻¹
[8]
  Km: 52 µM
  kcat: 32 ± 0.5 s⁻¹
[9]
  Hydrolysis of peptide hormone in comparison to the DP4 wild type enzyme: +++
[10]
  Hydrolysis of peptide hormone in comparison to the DP4 wild type enzyme: +++

## CC[C@H](C)[C@H](NC(=O)[C@@H]1CCCN1C(=O)[C@@H](N)C(C)(C)C)C(=O)O [t-Bu-Gly-Pro-Ile, t-Butyl-Gly-Pro-Ile] (H-[Tle]-Pro-Ile-OH)
[11]
  IC50: 1700 µM
[12]
  IC50: > 10 mM
[13]
  IC50: 3.6 µM
[14]
  IC50: 400 µM
[15]
  IC50: > 10 mM
[16]
  IC50: > 10 mM
[17]
  IC50: 600 µM
[18]
  IC50: 200 µM

## glucose-dependent insulinotropic peptide [GIP]
[3]
  kcat: 3.9 ± 0.2 s⁻¹
[4]
  kcat: 0.16 ± 0.08 s⁻¹
[8]
  kcat: 0.88 ± 0.08 s⁻¹
[19]
  Hydrolysis of peptide hormone in comparison to the DP4 wild type enzyme: - (hydrolysis below 0,01% of the wild type enzyme)
[20]
  Hydrolysis of peptide hormone in comparison to the DP4 wild type enzyme: - (hydrolysis below 0,01% of the wild type enzyme)
[21]
  Hydrolysis of peptide hormone in comparison to the DP4 wild type enzyme: - (hydrolysis below 0,01% of the wild type enzyme)
[22]
  Hydrolysis of peptide hormone in comparison to the DP4 wild type enzyme: - (hydrolysis below 0,01% of the wild type enzyme)
[23]
  Hydrolysis of peptide hormone in comparison to the DP4 wild type enzyme: - (hydrolysis below 0,01% of the wild type enzyme)
[9]
  Hydrolysis of peptide hormone in comparison to the DP4 wild type enzyme: +++
